These results are taken from publication PMC3581772.

The target in experiment [1] is T1, I59T human lysozyme (human) (UniProt P61626).
T1 sequence: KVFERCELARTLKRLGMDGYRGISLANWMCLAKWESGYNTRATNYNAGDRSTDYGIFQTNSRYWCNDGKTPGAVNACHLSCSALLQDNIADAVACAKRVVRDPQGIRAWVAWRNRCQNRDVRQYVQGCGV

The target in experiment [2] is T1, I59T human lysozyme (human). This is another data set of the same source.
In experiment [3] the target is amyloid β peptide Aβ(1–42) (UniProt P05067).

A value given as a limit tells only on which side of the number the result lay.

B1: native α2-macroglobulin (natural protein)
chain: SVSGKPQYMVLVPSLLHTETTEKGCVLLSYLNETVTVSASLESVRGNRSLFTDLEAENDVLHCVAFAVPKSSSNEEVMFLTVQVKGPTQEFKKRTTVMVKNEDSLVFVQTDKSIYKPGQTVKFRVVSMDENFHPLNELIPLVYIQDPKGNRIAQWQSFQLEGGLKQFSFPLSSEPFQGSYKVVVQKKSGGRTEHPFTVEEFVLPKFEVQVTVPKIITILEEEMNVSVCGLYTYGKPVPGHVTVSICRKYSDASDCHGEDSQAFCEKFSGQLNSHGCFYQQVKTKVFQLKRKEYEMKLHTEAQIQEEGTVVELTGRQSSEITRTITKLSFVKVDSHFRQGIPFFGQVRLVDGKGVPIPNKVIFIRGNEANYYSNATTDEHGLVQFSINTTNVMGTSLTVRVNYKDRSPCYGYQWVSEEHEEAHHTAYLVFSPSKSFVHLEPMSHELPCGHTQTVQAHYILNGGTLLGLKKLSFYYLIMAKGGIVRTGTHGLLVKQEDMKGHFSISIPVKSDIAPVARLLIYAVLPTGDVIGDSAKYDVENCLANKVDLSFSPSQSLPASHAHLRVTAAPQSVCALRAVDQSVLLMKPDAELSASSVYNLLPEKDLTGFPGPLNDQDNEDCINRHNVYINGITYTPVSSTNEKDMYSFLEDMGLKAFTNSKIRKPKMCPQLQQYEMHGPEGLRVGFYESDVMGRGHARLVHVEEPHTETVRKYFPETWIWDLVVVNSAGVAEVGVTVPDTITEWKAGAFCLSEDAGLGISSTASLRAFQPFFVELTMPYSVIRGEAFTLKATVLNYLPKCIRVSVQLEASPAFLAVPVEKEQAPHCICANGRQTVSWAVTPKSLGNVNFTVSAEALESQELCGTEVPSVPEHGRKDTVIKPLLVEPEGLEKETTFNSLLCPSGGEVSEELSLKLPPNVVEESARASVSVLGDILGSAMQNTQNLLQMPYGCGEQNMVLFAPNIYVLDYLNETQQLTPEIKSKAIGYLNTGYQRQLNYKHYDGSYSTFGERYGRNQGNTWLTAFVLKTFAQARAYIFIDEAHITQALIWLSQRQKDNGCFRSSGSLLNNAIKGGVEDEVTLSAYITIALLEIPLTVTHPVVRNALFCLESAWKTAQEGDHGSHVYTKALLAYAFALAGNQDKRKEVLKSLNEEAVKKDNSVHWERPQKPKAPVGHFYEPQAPSAEVEMTSYVLLAYLTAQPAPTSEDLTSATNIVKWITKQQNAQGGFSSTQDTVVALHALSKYGAATFTRTGKAAQVTIQSSGTFSSKFQVDNNNRLLLQQVSLPELPGEYSMKVTGEGCVYLQTSLKYNILPEKEEFPFALGVQTLPQTCDEPKAHTSFQISLSVSYTGSRSASNMAIVDVKMVSGFIPLKPTVKMLERSNHVSRTEVSSNHVLIYLDKVSNQTLSLFFTVLQDVPVRDLKPAIVKVYDYYETDEFAIAEYNAPCSKDLGNA
B1 displayed a decrease of ThT fluorescence at the endpoint of I59T lysozyme fibril formation, lysozyme-to-α2M 10:1 in experiment [1] of more than 90%. The molecule further returned an I59T lysozyme left soluble at the endpoint (SDS–PAGE of supernatants) in experiment [2] of more than 90%. Besides, the suppression of ThT signal at the endpoint of Aβ(1–42) fibril formation, Aβ-to-α2M 10:1 in experiment [3] is more than 80%.
